{"source": "patent US20240299504A1", "about": "“COMPOSITIONS AND METHODS FOR TREATING ALZHEIMERS DISEASE” (priority 2023, published 2024)", "binders": {"B1": {"name": "Parathyroid hormone (human) PTH1-34 (TOCRIS Bioscience, Cat #3011/1) (peptide, UniProt P01270 32-65, looked up)", "peptide": "SVSEIQLMHNLGKHLNSMERVEWLRKKLQDVHNF", "notes": "range 1-34; Residues 1-34 count on mature PTH, not on the precursor; also called hPTH1-34; Teriparatide"}}, "molecular_target": "T1, PTH receptor (PTH1R), parathyroid hormone type 1 receptor, on mouse astrocytes (mouse, UniProt P41593 27-591)", "T1 construct": "whole, on cells; Endogenous receptor of mouse cells; not isolated or expressed recombinantly", "T1 sequence (looked up)": "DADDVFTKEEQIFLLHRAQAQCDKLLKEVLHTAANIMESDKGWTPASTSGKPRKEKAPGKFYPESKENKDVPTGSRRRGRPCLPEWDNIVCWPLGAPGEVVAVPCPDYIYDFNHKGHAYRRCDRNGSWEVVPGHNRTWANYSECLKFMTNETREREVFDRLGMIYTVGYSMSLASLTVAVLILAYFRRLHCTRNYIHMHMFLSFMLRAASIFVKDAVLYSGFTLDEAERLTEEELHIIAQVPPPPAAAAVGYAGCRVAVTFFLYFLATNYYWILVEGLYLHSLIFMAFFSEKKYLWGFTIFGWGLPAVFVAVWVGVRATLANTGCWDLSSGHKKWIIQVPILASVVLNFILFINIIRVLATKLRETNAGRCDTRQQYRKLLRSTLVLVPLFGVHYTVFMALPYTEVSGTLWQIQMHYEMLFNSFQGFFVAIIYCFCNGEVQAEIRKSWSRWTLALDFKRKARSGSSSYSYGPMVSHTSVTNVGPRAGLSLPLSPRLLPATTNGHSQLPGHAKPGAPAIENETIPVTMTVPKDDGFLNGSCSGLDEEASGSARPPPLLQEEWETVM", "test": "summary sentence of the example; inferred from Biotin-PTH1-34 co-staining with astrocytes, PTH1R expression and signalling in cultured astrocytes"}
{"binder": "B1", "values": [{"measurement": "binding result", "value": "binds"}]}
